Experimental data reported in patent US20190106460A1 (published 2019).
Non-standard residues stand in square brackets, D forms with d. Groups on a side chain read outwards from the residue. *: point of attachment. Chol = cholesteryl, CC(C)CCC[C@@H](C)[C@H]1CC[C@H]2[C@@H]3CC=C4C[C@@H](*)CC[C@]4(C)[C@H]3CC[C@]12C; Benzenesulfonyl(4-tBu) = CC(C)(C)c1ccc(S(=O)(=O)*)cc1; 2,4,6‑trimethylbenzoyl = Cc1cc(C)c(C(=O)*)c(C)c1; Benzenesulfonyl(4-OMe) = COc1ccc(S(=O)(=O)*)cc1; Benzoyl(4-tBu) = CC(C)(C)c1ccc(C(=O)*)cc1; Phe(3-F) = N[C@@H](Cc1cccc(F)c1)C(=O)O; Benzoyl(4-Br) = O=C(c1ccc(Br)cc1)*; 2Naphthoyl = O=C(c1ccc2ccccc2c1)*; Benzoyl(4-Me) = Cc1ccc(C(=O)*)cc1; Ahx = NCCCCCC(=O)O

Each binder was assayed against T1, Beta Transducin repeat-containing protein (βTrCP), tag cleaved and complexed with Skp1 (UniProt Q9Y297 175-605; P63208 1-163) (assay: FP competition dose-response, fluorescein-IkB peptide tracer on βTrCP/Skp1 (average Ki; assay not given)).
T1 construct: the FP protocol says that Ki is determined from FP dose-response curves; also called βTrCP/Skp1
T1 sequence (Q9Y297 175-605, chain 1 of 2): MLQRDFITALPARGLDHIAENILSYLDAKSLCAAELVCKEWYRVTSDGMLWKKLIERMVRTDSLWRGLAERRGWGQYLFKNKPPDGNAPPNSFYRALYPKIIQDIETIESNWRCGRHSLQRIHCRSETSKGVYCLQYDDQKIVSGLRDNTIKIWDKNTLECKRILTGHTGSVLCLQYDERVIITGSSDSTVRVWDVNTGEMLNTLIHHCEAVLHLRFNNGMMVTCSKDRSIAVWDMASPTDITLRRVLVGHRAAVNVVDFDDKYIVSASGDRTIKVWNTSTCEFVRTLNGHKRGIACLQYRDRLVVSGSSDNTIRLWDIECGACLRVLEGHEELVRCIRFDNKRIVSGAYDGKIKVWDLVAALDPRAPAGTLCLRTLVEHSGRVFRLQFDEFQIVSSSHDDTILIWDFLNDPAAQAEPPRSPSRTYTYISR
T1 sequence (P63208 whole entry, chain 2 of 2): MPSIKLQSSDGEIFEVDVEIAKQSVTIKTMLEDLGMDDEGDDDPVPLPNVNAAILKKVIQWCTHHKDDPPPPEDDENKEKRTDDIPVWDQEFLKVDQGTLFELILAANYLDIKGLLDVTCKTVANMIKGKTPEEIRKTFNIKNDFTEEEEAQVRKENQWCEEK

Binder | Ki
{3,5‑(CH3)2‑PhSO2}-[dD]EG[Phe(3-F)]WE-NH2 (also called UBP050) [3,5-(CH3)2-PhSO2-dEGF(3F)WE-NH2] | 24.6 nM
{4‑Br‑PhSO2}-[dD]EG[Phe(3-F)]WE-NH2 (also called UBP042) [4-Br-PhSO2-dEGF(3F)WE-NH2] | 2.52 nM
{4‑CF3‑PhSO2}-[dD]EG[Phe(3-F)]WE-NH2 (also called UBP047) [4-CF3-PhSO2-dEGF(3F)WE-NH2] | 9.45 nM
{2‑Naph‑SO2}-[dD]EG[Phe(3-F)]WE-NH2 (also called UBP044) [2-Naph-SO2-dEGF(3F)WE-NH2] | 5.81 nM
{4‑Br‑3‑CF3‑PhSO2}-[dD]EG[Phe(3-F)]WE-NH2 (also called UBP046) [4-Br-3-CF3-PhSO2-dEGF(3F)WE-NH2] | 14.2 nM
{4‑OCF3‑PhSO2}-[dD]EG[Phe(3-F)]WE-NH2 (also called UBP045) [4-OCF3-PhSO2-dEGF(3F)WE-NH2] | 4.77 nM
{4‑Br‑2‑OCF3‑PhSO2}-[dD]EG[Phe(3-F)]WE-NH2 (also called UBP051) [4-Br-2-OCF3-PhSO2-dEGF(3F)WE-NH2] | 110 nM

Now from value to binder:

Ki | Binder
330 nM | {4‑Cl‑PhSO2}-[dD]EG[Phe(3-F)]WE-NH2 (also called UBP053) [4-Cl-PhSO2-dEGF(3F)WE-NH2]
45.3 nM | {2,4‑(Br)2‑PhSO2}-[dD]EG[Phe(3-F)]WE-NH2 (also called UBP049) [2,4-(Br)2-PhSO2-dEGF(3F)WE-NH2]
27 nM | {2,4‑(Cl)2‑PhSO2}-[dD]EG[Phe(3-F)]WE-NH2 (also called UBP048) [2,4-(Cl)2-PhSO2-dEGF(3F)WE-NH2]
3.96 nM | {4‑Br‑2‑CH3‑PhSO2}-[dD]EG[Phe(3-F)]WE-NH2 (also called UBP043) [4-Br-2-CH3-PhSO2-dEGF(3F)WE-NH2]
253 nM | {4‑I‑PhSO2}-[dD]EG[Phe(3-F)]WE-NH2 (also called UBP052) [4-I-PhSO2-dEGF(3F)WE-NH2]

These binders were tested against T2, βTrCP (tag cleaved and complexed with Skp1) (UniProt Q9Y297 175-605; P63208 1-163) (assay: fluorescence polarisation assay; the column head does not say whether IC50 or Ki).
T2 construct: Protein of the fluorescence polarisation assay, 0.035 µM; also called Beta Transducin repeat-containing protein; βTrCP/Skp1
Protocol: Assay components (without compound) were premixed in a microcentrifuge tube and incubated for 1 hour to ensure equilibrium was achieved. Each compound was then added to one tube, mixed by vortexing, and then dispensed into 3 wells of a black 384-well plate and incubated for 30 minutes. Fluorescence polarization was then read (excitation 485 nm, emission 530 nm) using an Analyst-AD from Molecular Devices.
Binding of the compounds to βTrCP was assessed using a fluorescence polarisation (FP) binding assay. The FP assay is an in vitro binding assay using a fluorescein-tagged IkB peptide at 10 nM to mimic substrate binding to βTrCP, and was performed as described above.

T2 sequence (Q9Y297 175-605, chain 1 of 2): as the sequence (Q9Y297 175-605, chain 1 of 2) above
T2 sequence (P63208 whole entry, chain 2 of 2): as the sequence (P63208 whole entry, chain 2 of 2) above

Binder | FP Assay /
{Benzenesulfonyl(4-OMe)}-[dD]EG[Phe(3-F)]WE[Ahx][dK][dK][dK][dK][dK][dK][dK][dK][dK]-NH2 (SMILES COc1ccc(S(=O)(=O)N[C@H](CC(=O)O)C(=O)N[C@@H](CCC(=O)O)C(=O)NCC(=O)N[C@@H](Cc2cccc(F)c2)C(=O)N[C@@H](Cc2c[nH]c3ccccc23)C(=O)N[C@@H](CCC(=O)O)C(=O)NCCCCCC(=O)N[C@H](CCCCN)C(=O)N[C@H](CCCCN)C(=O)N[C@H](CCCCN)C(=O)N[C@H](CCCCN)C(=O)N[C@H](CCCCN)C(=O)N[C@H](CCCCN)C(=O)N[C@H](CCCCN)C(=O)N[C@H](CCCCN)C(=O)N[C@H](CCCCN)C(N)=O)cc1, the sheet gives this poly-lysine compound the code UBP022; it is not the untailed UBP022 (1.m39, 5.m30, 6.m3)) [4-(MeO)PhSO2-dEGF(3F)WE-Ahx-k9-NH2] | 548 nM
{Benzenesulfonyl(4-tBu)}-[dD]EG[Phe(3-F)]WE[Ahx]K(2Naphthoyl)-NH2 (Round II CPP; also called UBP076) [4-(t-Bu)PhSO2-dEGF(3F)WE-Ahx-K(CO(2-Naphth))-NH2] | 43.4 nM
{Benzenesulfonyl(4-tBu)}-[dD]EG[Phe(3-F)]WE[Ahx]K(Benzoyl(4-Br))-NH2 (Round II CPP; also called UBP079) [4-(t-Bu)PhSO2-dEGF(3F)WE-Ahx-K(CO((4-Br)Ph))-NH2] | 40.8 nM

Next, values leading:

FP Assay / | Binder
40 nM | {Benzenesulfonyl(4-tBu)}-[dD]EG[Phe(3-F)]WE[Ahx]K(Benzoyl(4-Me))-NH2 (Round II CPP; also called UBP078) [4-(t-Bu)PhSO2-dEGF(3F)WE-Ahx-K(CO((4-Me)Ph))-NH2]
40.9 nM | {Benzenesulfonyl(4-tBu)}-[dD]EG[Phe(3-F)]WE[Ahx]K(2,4,6‑trimethylbenzoyl)-NH2 (Round II CPP; also called UBP077) [4-(t-Bu)PhSO2-dEGF(3F)WE-Ahx-K(CO((2,4,6-Me3)Ph))-NH2]
87.8 nM | {Benzenesulfonyl(4-tBu)}-[dD]EG[Phe(3-F)]WE[Ahx]K(Benzoyl(4-tBu))-NH2 (Round II CPP; also called UBP075) [4-(t-Bu)PhSO2-dEGF(3F)WE-Ahx-K(CO((4-tBu)Ph))-NH2]
19.3 nM | {Benzenesulfonyl(4-OMe)}-[dD]EG[Phe(3-F)]WE[Ahx]K([Ahx-Chol])-NH2 (X stands for Ahx; also called UBP036) [4-(MeO)PhSO2-dEGF(3F)WE-Ahx-K(Ahx-Chol)-NH2]
